No end group written: not given here.
B1: CsgA segment 137VTQVGF142 (R5 repeat), capped termini (peptide)
peptide: Ac-VTQVGF-NH2
B2: CsgA segment 47IYQYGG52 (R1 repeat), unmodified termini (peptide)
peptide: H-IYQYGG-OH
B3: CsgA segment 137VTQVGF142 (R5 repeat), capped at the C-terminus (peptide)
peptide: VTQVGF-NH2
B4: CsgA segment 47IYQYGG52 (R1 repeat), capped termini (peptide)
peptide: Ac-IYQYGG-NH2
B5: CsgA segment 45LNIYQY50 (R1 repeat), capped at the C-terminus (peptide)
peptide: LNIYQY-NH2
B6: CsgA segment 129TASNSS134 (R4-R5 loop), unmodified termini (peptide)
peptide: H-TASNSS-OH
B7: CsgA segment 45LNIYQY50 (R1 repeat), unmodified termini (peptide)
peptide: H-LNIYQY-OH
B8: CsgA segment 137VTQVGF142 (R5 repeat), unmodified termini (peptide)
peptide: H-VTQVGF-OH
B9: CsgA segment 45LNIYQY50 (R1 repeat), capped termini (peptide)
peptide: Ac-LNIYQY-NH2

Tests used:
[1] = target: CsgA, major curlin subunit, recombinant with C-terminal His6-tag (Escherichia coli) (UniProt P28307); assay: SEC-MALS
[2] = target: the molecule itself; assay: ThT fibrillation kinetics
crystal structure = target: the molecule itself; assay: crystal structure
[3] = target: the molecule itself; assay: ThT fibrillation kinetics; remark: listed apart in the source

Row | Molecule | binding result [2] | binding result (crystal structure) | other results
1 | CsgA, major curlin subunit, recombinant with C-terminal His6-tag (from UniProt P28307 21-151) (natural protein) | – | – | stoichiometry N [1]: 6
2 | B1 | binds | – | –
3 | B2 | – | binds | –
4 | B3 | – | – | binding result [3]: binds
5 | B4 | binds | – | –
6 | B5 | – | – | binding result [3]: binds
7 | B6 | – | binds | –
8 | B7 | – | binds | –
9 | B8 | – | binds | –
10 | B9 | binds | – | –
